From patent US20150344570A1 (published 2015)

Biological target: T1, FcγRIa (human, UniProt P12314 16-292)
T1 construct: extracellular domain; Soluble extracellular domain expressed in FreeStyle293 cells, used as analyte in Biacore; also called FcgRI; 1a; not shown: His tag attached to the C terminus
Assay: SPR (Biacore); He Ab vs HeCon Ab GpH7-A5/GpH7-B3/GpL16-k0
Method: Analysis of interaction between objective antibody and the FcγR was carried out using Biacore T100 (GE Healthcare). HBS-EP+ (GE Healthcare) was used as the running buffer, and the measurement temperature was set to 25° C. Chips produced by immobilizing the antigen peptide by the amine coupling method to a Series S Sencor Chip CM5 (GE Healthcare), or alternatively, chips produced by allowing preliminarily biotinylated antigen peptides to interact with and immobilize onto a Series S Sensor Chip SA (certified) (GE Healthcare) were used. Antibodies of interest were captured onto an antigen peptide-immobilized chip, and allowed to interact to each FcγR diluted with running buffer. To regenerate and repeatedly use the chip, the antibodies captured on the chip were washed off by reacting 10 mM glycine-HCl, pH 1.5.

T1 sequence (P12314 16-292): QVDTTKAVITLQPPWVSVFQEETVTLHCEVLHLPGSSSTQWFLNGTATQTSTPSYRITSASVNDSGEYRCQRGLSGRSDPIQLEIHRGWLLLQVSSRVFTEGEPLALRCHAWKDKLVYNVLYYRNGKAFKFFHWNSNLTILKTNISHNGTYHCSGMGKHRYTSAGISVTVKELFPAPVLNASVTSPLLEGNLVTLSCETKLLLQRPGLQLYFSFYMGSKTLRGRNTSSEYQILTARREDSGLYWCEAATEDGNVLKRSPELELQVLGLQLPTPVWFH

| Binder | He/Con_1a |
| --- | --- |
| GpH7-A5/GpH7-B3 variant S337_02A/GpL16-k0 (antibody, human IgG1, kappa, also called He Ab S337_02A) heavy 1: not shown heavy 2: not shown light: DIVMTQSPLSLPVTPGEPASISCQASESLVHSNRNTYLHWYLQKPGQSPQLLIYKVSNRFSGVPDRFSGSGSGTDFTLKISRVEAEDVGVYYCSQNTHVPPTFGQGTKVEIERTVAAPSVFIFPPSDEQLKSGTASVVCLLNNFYPREAKVQWKVDNALQSGNSQESVTEQDSKDSTYSLSSTLTLSKADYEKHKVYACEVTHQGLSSPVTKSFNRGEC | 106 relative binding, control = 100 |
| GpH7-A5/GpH7-B3 variant S337_20W/GpL16-k0 (antibody, human IgG1, kappa, also called He Ab S337_20W) heavy 1: not shown heavy 2: not shown light: DIVMTQSPLSLPVTPGEPASISCQASESLVHSNRNTYLHWYLQKPGQSPQLLIYKVSNRFSGVPDRFSGSGSGTDFTLKISRVEAEDVGVYYCSQNTHVPPTFGQGTKVEIERTVAAPSVFIFPPSDEQLKSGTASVVCLLNNFYPREAKVQWKVDNALQSGNSQESVTEQDSKDSTYSLSSTLTLSKADYEKHKVYACEVTHQGLSSPVTKSFNRGEC | 105 relative binding, control = 100 |
| GpH7-A5/GpH7-B3 variant S337_06M/GpL16-k0 (antibody, human IgG1, kappa, also called He Ab S337_06M) heavy 1: not shown heavy 2: not shown light: DIVMTQSPLSLPVTPGEPASISCQASESLVHSNRNTYLHWYLQKPGQSPQLLIYKVSNRFSGVPDRFSGSGSGTDFTLKISRVEAEDVGVYYCSQNTHVPPTFGQGTKVEIERTVAAPSVFIFPPSDEQLKSGTASVVCLLNNFYPREAKVQWKVDNALQSGNSQESVTEQDSKDSTYSLSSTLTLSKADYEKHKVYACEVTHQGLSSPVTKSFNRGEC | 107 relative binding, control = 100 |
| GpH7-A5/GpH7-B3 variant T335_09D/GpL16-k0 (antibody, human IgG1, kappa, also called He Ab T335_09D) heavy 1: not shown heavy 2: not shown light: DIVMTQSPLSLPVTPGEPASISCQASESLVHSNRNTYLHWYLQKPGQSPQLLIYKVSNRFSGVPDRFSGSGSGTDFTLKISRVEAEDVGVYYCSQNTHVPPTFGQGTKVEIERTVAAPSVFIFPPSDEQLKSGTASVVCLLNNFYPREAKVQWKVDNALQSGNSQESVTEQDSKDSTYSLSSTLTLSKADYEKHKVYACEVTHQGLSSPVTKSFNRGEC | 108 relative binding, control = 100 |
| GpH7-A5/GpH7-B3 variant S337_03V/GpL16-k0 (antibody, human IgG1, kappa, also called He Ab S337_03V) heavy 1: not shown heavy 2: not shown light: DIVMTQSPLSLPVTPGEPASISCQASESLVHSNRNTYLHWYLQKPGQSPQLLIYKVSNRFSGVPDRFSGSGSGTDFTLKISRVEAEDVGVYYCSQNTHVPPTFGQGTKVEIERTVAAPSVFIFPPSDEQLKSGTASVVCLLNNFYPREAKVQWKVDNALQSGNSQESVTEQDSKDSTYSLSSTLTLSKADYEKHKVYACEVTHQGLSSPVTKSFNRGEC | 107 relative binding, control = 100 |
| GpH7-A5/GpH7-B3 variant T335_05P/GpL16-k0 (antibody, human IgG1, kappa, also called He Ab T335_05P) heavy 1: not shown heavy 2: not shown light: DIVMTQSPLSLPVTPGEPASISCQASESLVHSNRNTYLHWYLQKPGQSPQLLIYKVSNRFSGVPDRFSGSGSGTDFTLKISRVEAEDVGVYYCSQNTHVPPTFGQGTKVEIERTVAAPSVFIFPPSDEQLKSGTASVVCLLNNFYPREAKVQWKVDNALQSGNSQESVTEQDSKDSTYSLSSTLTLSKADYEKHKVYACEVTHQGLSSPVTKSFNRGEC | 106 relative binding, control = 100 |
| GpH7-A5/GpH7-B3 variant S337_12R/GpL16-k0 (antibody, human IgG1, kappa, also called He Ab S337_12R) heavy 1: not shown heavy 2: not shown light: DIVMTQSPLSLPVTPGEPASISCQASESLVHSNRNTYLHWYLQKPGQSPQLLIYKVSNRFSGVPDRFSGSGSGTDFTLKISRVEAEDVGVYYCSQNTHVPPTFGQGTKVEIERTVAAPSVFIFPPSDEQLKSGTASVVCLLNNFYPREAKVQWKVDNALQSGNSQESVTEQDSKDSTYSLSSTLTLSKADYEKHKVYACEVTHQGLSSPVTKSFNRGEC | 106 relative binding, control = 100 |
| GpH7-A5/GpH7-B3 variant S337_10E/GpL16-k0 (antibody, human IgG1, kappa, also called He Ab S337_10E) heavy 1: not shown heavy 2: not shown light: DIVMTQSPLSLPVTPGEPASISCQASESLVHSNRNTYLHWYLQKPGQSPQLLIYKVSNRFSGVPDRFSGSGSGTDFTLKISRVEAEDVGVYYCSQNTHVPPTFGQGTKVEIERTVAAPSVFIFPPSDEQLKSGTASVVCLLNNFYPREAKVQWKVDNALQSGNSQESVTEQDSKDSTYSLSSTLTLSKADYEKHKVYACEVTHQGLSSPVTKSFNRGEC | 106 relative binding, control = 100 |
| GpH7-A5/GpH7-B3 variant T335_06M/GpL16-k0 (antibody, human IgG1, kappa, also called He Ab T335_06M) heavy 1: not shown heavy 2: not shown light: DIVMTQSPLSLPVTPGEPASISCQASESLVHSNRNTYLHWYLQKPGQSPQLLIYKVSNRFSGVPDRFSGSGSGTDFTLKISRVEAEDVGVYYCSQNTHVPPTFGQGTKVEIERTVAAPSVFIFPPSDEQLKSGTASVVCLLNNFYPREAKVQWKVDNALQSGNSQESVTEQDSKDSTYSLSSTLTLSKADYEKHKVYACEVTHQGLSSPVTKSFNRGEC | 107 relative binding, control = 100 |
| GpH7-A5/GpH7-B3 variant T335_10E/GpL16-k0 (antibody, human IgG1, kappa, also called He Ab T335_10E) heavy 1: not shown heavy 2: not shown light: DIVMTQSPLSLPVTPGEPASISCQASESLVHSNRNTYLHWYLQKPGQSPQLLIYKVSNRFSGVPDRFSGSGSGTDFTLKISRVEAEDVGVYYCSQNTHVPPTFGQGTKVEIERTVAAPSVFIFPPSDEQLKSGTASVVCLLNNFYPREAKVQWKVDNALQSGNSQESVTEQDSKDSTYSLSSTLTLSKADYEKHKVYACEVTHQGLSSPVTKSFNRGEC | 109 relative binding, control = 100 |
| GpH7-A5/GpH7-B3 variant T335_04F/GpL16-k0 (antibody, human IgG1, kappa, also called He Ab T335_04F) heavy 1: not shown heavy 2: not shown light: DIVMTQSPLSLPVTPGEPASISCQASESLVHSNRNTYLHWYLQKPGQSPQLLIYKVSNRFSGVPDRFSGSGSGTDFTLKISRVEAEDVGVYYCSQNTHVPPTFGQGTKVEIERTVAAPSVFIFPPSDEQLKSGTASVVCLLNNFYPREAKVQWKVDNALQSGNSQESVTEQDSKDSTYSLSSTLTLSKADYEKHKVYACEVTHQGLSSPVTKSFNRGEC | 105 relative binding, control = 100 |
| GpH7-A5/GpH7-B3 variant T335_12R/GpL16-k0 (antibody, human IgG1, kappa, also called He Ab T335_12R) heavy 1: not shown heavy 2: not shown light: DIVMTQSPLSLPVTPGEPASISCQASESLVHSNRNTYLHWYLQKPGQSPQLLIYKVSNRFSGVPDRFSGSGSGTDFTLKISRVEAEDVGVYYCSQNTHVPPTFGQGTKVEIERTVAAPSVFIFPPSDEQLKSGTASVVCLLNNFYPREAKVQWKVDNALQSGNSQESVTEQDSKDSTYSLSSTLTLSKADYEKHKVYACEVTHQGLSSPVTKSFNRGEC | 113 relative binding, control = 100 |
| GpH7-A5/GpH7-B3 variant S337_15Y/GpL16-k0 (antibody, human IgG1, kappa, also called He Ab S337_15Y) heavy 1: not shown heavy 2: not shown light: DIVMTQSPLSLPVTPGEPASISCQASESLVHSNRNTYLHWYLQKPGQSPQLLIYKVSNRFSGVPDRFSGSGSGTDFTLKISRVEAEDVGVYYCSQNTHVPPTFGQGTKVEIERTVAAPSVFIFPPSDEQLKSGTASVVCLLNNFYPREAKVQWKVDNALQSGNSQESVTEQDSKDSTYSLSSTLTLSKADYEKHKVYACEVTHQGLSSPVTKSFNRGEC | 104 relative binding, control = 100 |
| GpH7-A5/GpH7-B3 variant S337_08L/GpL16-k0 (antibody, human IgG1, kappa, also called He Ab S337_08L) heavy 1: not shown heavy 2: not shown light: DIVMTQSPLSLPVTPGEPASISCQASESLVHSNRNTYLHWYLQKPGQSPQLLIYKVSNRFSGVPDRFSGSGSGTDFTLKISRVEAEDVGVYYCSQNTHVPPTFGQGTKVEIERTVAAPSVFIFPPSDEQLKSGTASVVCLLNNFYPREAKVQWKVDNALQSGNSQESVTEQDSKDSTYSLSSTLTLSKADYEKHKVYACEVTHQGLSSPVTKSFNRGEC | 105 relative binding, control = 100 |
| GpH7-A5/GpH7-B3 variant T335_07I/GpL16-k0 (antibody, human IgG1, kappa, also called He Ab T335_07I) heavy 1: not shown heavy 2: not shown light: DIVMTQSPLSLPVTPGEPASISCQASESLVHSNRNTYLHWYLQKPGQSPQLLIYKVSNRFSGVPDRFSGSGSGTDFTLKISRVEAEDVGVYYCSQNTHVPPTFGQGTKVEIERTVAAPSVFIFPPSDEQLKSGTASVVCLLNNFYPREAKVQWKVDNALQSGNSQESVTEQDSKDSTYSLSSTLTLSKADYEKHKVYACEVTHQGLSSPVTKSFNRGEC | 109 relative binding, control = 100 |
| GpH7-A5/GpH7-B3 variant T335_11K/GpL16-k0 (antibody, human IgG1, kappa, also called He Ab T335_11K) heavy 1: not shown heavy 2: not shown light: DIVMTQSPLSLPVTPGEPASISCQASESLVHSNRNTYLHWYLQKPGQSPQLLIYKVSNRFSGVPDRFSGSGSGTDFTLKISRVEAEDVGVYYCSQNTHVPPTFGQGTKVEIERTVAAPSVFIFPPSDEQLKSGTASVVCLLNNFYPREAKVQWKVDNALQSGNSQESVTEQDSKDSTYSLSSTLTLSKADYEKHKVYACEVTHQGLSSPVTKSFNRGEC | 111 relative binding, control = 100 |
| GpH7-A5/GpH7-B3 variant S337_07I/GpL16-k0 (antibody, human IgG1, kappa, also called He Ab S337_07I) heavy 1: not shown heavy 2: not shown light: DIVMTQSPLSLPVTPGEPASISCQASESLVHSNRNTYLHWYLQKPGQSPQLLIYKVSNRFSGVPDRFSGSGSGTDFTLKISRVEAEDVGVYYCSQNTHVPPTFGQGTKVEIERTVAAPSVFIFPPSDEQLKSGTASVVCLLNNFYPREAKVQWKVDNALQSGNSQESVTEQDSKDSTYSLSSTLTLSKADYEKHKVYACEVTHQGLSSPVTKSFNRGEC | 105 relative binding, control = 100 |
| GpH7-A5/GpH7-B3 variant S337_19Q/GpL16-k0 (antibody, human IgG1, kappa, also called He Ab S337_19Q) heavy 1: not shown heavy 2: not shown light: DIVMTQSPLSLPVTPGEPASISCQASESLVHSNRNTYLHWYLQKPGQSPQLLIYKVSNRFSGVPDRFSGSGSGTDFTLKISRVEAEDVGVYYCSQNTHVPPTFGQGTKVEIERTVAAPSVFIFPPSDEQLKSGTASVVCLLNNFYPREAKVQWKVDNALQSGNSQESVTEQDSKDSTYSLSSTLTLSKADYEKHKVYACEVTHQGLSSPVTKSFNRGEC | 105 relative binding, control = 100 |
| GpH7-A5/GpH7-B3 variant T335_08L/GpL16-k0 (antibody, human IgG1, kappa, also called He Ab T335_08L) heavy 1: not shown heavy 2: not shown light: DIVMTQSPLSLPVTPGEPASISCQASESLVHSNRNTYLHWYLQKPGQSPQLLIYKVSNRFSGVPDRFSGSGSGTDFTLKISRVEAEDVGVYYCSQNTHVPPTFGQGTKVEIERTVAAPSVFIFPPSDEQLKSGTASVVCLLNNFYPREAKVQWKVDNALQSGNSQESVTEQDSKDSTYSLSSTLTLSKADYEKHKVYACEVTHQGLSSPVTKSFNRGEC | 115 relative binding, control = 100 |
| GpH7-A5/GpH7-B3 variant S337_09D/GpL16-k0 (antibody, human IgG1, kappa, also called He Ab S337_09D) heavy 1: not shown heavy 2: not shown light: DIVMTQSPLSLPVTPGEPASISCQASESLVHSNRNTYLHWYLQKPGQSPQLLIYKVSNRFSGVPDRFSGSGSGTDFTLKISRVEAEDVGVYYCSQNTHVPPTFGQGTKVEIERTVAAPSVFIFPPSDEQLKSGTASVVCLLNNFYPREAKVQWKVDNALQSGNSQESVTEQDSKDSTYSLSSTLTLSKADYEKHKVYACEVTHQGLSSPVTKSFNRGEC | 106 relative binding, control = 100 |
| GpH7-A5/GpH7-B3 variant S337_04F/GpL16-k0 (antibody, human IgG1, kappa, also called He Ab S337_04F) heavy 1: not shown heavy 2: not shown light: DIVMTQSPLSLPVTPGEPASISCQASESLVHSNRNTYLHWYLQKPGQSPQLLIYKVSNRFSGVPDRFSGSGSGTDFTLKISRVEAEDVGVYYCSQNTHVPPTFGQGTKVEIERTVAAPSVFIFPPSDEQLKSGTASVVCLLNNFYPREAKVQWKVDNALQSGNSQESVTEQDSKDSTYSLSSTLTLSKADYEKHKVYACEVTHQGLSSPVTKSFNRGEC | 106 relative binding, control = 100 |
